Reference: PMC9303947

Biological target: Myo1^IQ12-FRET protein (CyPet and YPet separated by both Myo1 IQ motifs) (S. pombe)
Test: FRET or BRET; Cam1 or ^ACECam1 titrated into 0.5 µM Myo1^IQ12-FRET protein in solution, absence of calcium; % change in donor CyPet fluorescence (excitation 435 nm); 140 mM KCl, 2 mM MgCl2, 20 mM MOPS pH 7.0, 2 mM EGTA; two binding events fitted

| affinity of the first binding event | affinity of the second binding event | Substance |
| --- | --- | --- |
| < 0.1 µM | 1.47 µM | Cam1 (unacetylated Schizosaccharomyces pombe calmodulin) (from UniProt P05933 1-150) (natural protein) |
| < 0.1 µM | 0.68 µM | ^ACECam1 (amino-terminally acetylated Schizosaccharomyces pombe calmodulin) (from UniProt P05933 1-150) (natural protein) |
